{"source": "patent US20210054076A1", "about": "(Chugai, published 2021)", "binders": {"B1": {"name": "CH04/CD3 (bispecific antibody, human IgG1, kappa, N297A)", "heavy 1": "EVQLQQSGPELVKPGASMKISCKASGYSFTGYTMNWVKQSHGKNLEWIGLINPYNGGTIYNQKFKGKATLTVDKSSSTAYMELLSLTSEDSAVYYCARDYGFVLDYWGQGTTLTVSSASTKGPSVFPLAPSSKSTSGGTAALGCLVKDYFPEPVTVSWNSGALTSGVHTFPAVLQSSGLYSLSSVVTVPSSSLGTQTYICNVNHKPSNTKVDKKVEPKSCDKTHTCPPCPAPELRGGPKVFLFPPKPKDTLMISRTPEVTCVVVDVSHEDPEVKFNWYVDGVEVHNAKTKPREEQYASTYRVVSVLTVLHQDWLNGKEYKCKVSNKALPAPIEKTISKAKGQPREPQVYTLPPSREEMTKNQVSLTCLVKGFYPSDIAVEWESNGQPENNYKTTPPYLDSDGSFFLYSKLTVDKSRWQQGNVFSCSVMHEALHNHYTQESLSLSP", "light 1": "DIVLTQSPSIMSVSPGEKVTITCSASSSVSYMHWFQQKPGTSPKLCIYSTSNLASGVPARFSGRGSGTSYSLTISRVAAEDAATYYCQQRSNYPPWTFGGGTKLEIKRTVAAPSVFIFPPSDEQLKSGTASVVCLLNNFYPREAKVQWKVDNALQSGNSQESVTEQDSKDSTYSLSSTLTLSKADYEKHKVYACEVTHQGLSSPVTKSFNRGEC", "heavy 2": "QVQLVESGGGVVQPGGSLRLSCAASGFTFSNAWMHWVRQAPGKGLEWVAQIKDKSQNYATYVAESVKGRFTISRADSKNSIYLQMNSLKTEDTAVYYCRYVHYAAGYGVDIWGQGTTVTVSSASTKGPSVFPLAPSSKSTSGGTAALGCLVKDYFPEPVTVSWNSGALTSGVHTFPAVLQSSGLYSLSSVVTVPSSSLGTQTYICNVNHKPSNTKVDKKVEPKSCDKTHTCPPCPAPELRGGPKVFLFPPKPKDTLMISRTPEVTCVVVDVSHEDPEVKFNWYVDGVEVHNAKTKPREEQYASTYRVVSVLTVLHQDWLNGKEYKCKVSNKALPAPIEKTISKAKGQPREPQVYTLPPSRKEMTKNQVSLTCLVKGFYPSDIAVEWESNGQPENNYKTTPPYLDSDGSFFLYSKLTVDKSRWQQGNVFSCSVMHEALHNHYTQKSLSLSP", "light 2": "DIVMTQSPLSLPVTPGEPASISCRSSQPLVHSNRNTYLHWYQQKPGQAPRLLIYKVSNRFSGVPDRFSGSGSGTDFTLKISRVEAEDVGVYYCGQGTQVPYTFGQGTKLEIKRTVAAPSVFIFPPSDEQLKSGTASVVCLLNNFYPREAKVQWKVDNALQSGNSQESVTEQDSKDSTYSLSSTLTLSKADYEKHKVYACEVTHQGLSSPVTKSFNRGEC", "notes": "Made by Fab arm exchange of the bivalent anti-CLDN6 antibody CH04 with the bivalent anti-CD3 antibody CD3-1; human IgG1 constant region; One anti-CLDN6 arm and one anti-CD3 arm; also called CLDN6-TRAB; CLDN6-targeted T-cell redirecting bispecific antibody"}}, "key": {"[1]": {"target": "T1, human CLDN6 (human, UniProt P56747 1-220)", "T1 sequence": "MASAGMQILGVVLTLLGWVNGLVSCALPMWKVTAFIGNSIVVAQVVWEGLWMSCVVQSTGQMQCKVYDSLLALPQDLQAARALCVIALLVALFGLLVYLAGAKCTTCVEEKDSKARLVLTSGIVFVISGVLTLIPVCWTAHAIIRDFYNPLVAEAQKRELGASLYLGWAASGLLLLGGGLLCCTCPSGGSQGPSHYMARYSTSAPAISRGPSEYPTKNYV", "assay": "cell-based or functional assay"}, "[2]": {"target": "T1, human CLDN6", "assay": "FACS on Ba/F3 transfectant, antibody 20 micro g/ml, FITC anti-human IgG"}, "[3]": {"target": "T2, mouse CLDN3 (mouse, UniProt Q9Z0G9 1-219)", "T2 construct": "whole, on cells; also called mCLDN3; BaF3_mCLDN3", "T2 sequence (looked up)": "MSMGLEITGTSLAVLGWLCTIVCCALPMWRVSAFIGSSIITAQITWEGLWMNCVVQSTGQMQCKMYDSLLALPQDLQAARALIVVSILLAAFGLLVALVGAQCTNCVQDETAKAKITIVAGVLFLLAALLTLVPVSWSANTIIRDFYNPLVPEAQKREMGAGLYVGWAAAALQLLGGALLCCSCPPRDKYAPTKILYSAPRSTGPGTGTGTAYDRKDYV", "assay": "FACS on Ba/F3 transfectant, antibody 20 micro g/ml, FITC anti-human IgG"}, "[4]": {"target": "T3, human CLDN9 (human, UniProt O95484 1-217)", "T3 construct": "whole, on cells; also called hCLDN9; BaF3_hCLDN9", "T3 sequence (looked up)": "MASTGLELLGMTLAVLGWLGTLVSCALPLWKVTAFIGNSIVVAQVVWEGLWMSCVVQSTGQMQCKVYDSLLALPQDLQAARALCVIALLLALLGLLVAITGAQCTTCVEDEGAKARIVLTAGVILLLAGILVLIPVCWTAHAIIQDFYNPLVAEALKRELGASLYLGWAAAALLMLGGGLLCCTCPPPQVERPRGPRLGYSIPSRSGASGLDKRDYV", "assay": "FACS on Ba/F3 transfectant, antibody 20 micro g/ml, FITC anti-human IgG"}, "[5]": {"target": "T1, human CLDN6", "assay": "cell-based or functional assay", "remark": "listed apart in the source"}}}
{"binder": "B1", "values": [{"measurement": "EC50 (read off the curve), Jurkat/NFAT-RE luciferase reporter, target cells HuH-7", "setting": "[1]", "value": "~0.08", "unit": "nM"}, {"measurement": "Geo-mean value of FACS", "setting": "[2]", "value": 3480}, {"measurement": "Geo-mean value of FACS", "setting": "[3]", "value": 27}, {"measurement": "Geo-mean value of FACS", "setting": "[4]", "value": 186}, {"measurement": "EC50 (read off the curve), Jurkat/NFAT-RE luciferase reporter, target cells PA-1", "setting": "[5]", "value": "~0.04", "unit": "nM"}]}
